Substitutions are numbered along the chain they refer to. Numbers in names are those of the source.
B1: Chryseobacterium sp-62563 propeptide F99A (protein)
chain: NQDPNLVAKESNETAMKDFGKTVPVGIEKEDGKFKISFMVTAQPYEIKDSKENAAYISMIKTAVENETPIHVFLKANTNEIAKVDKATDDDIRYFKSVATKEVKEENRK
B2: Chryseobacterium sp-62563 propeptide (first polypeptide, propeptide domain), wildtype (other)
chain: B1 chain with A99F

What was measured:
Assay in all cases: cell-based or functional assay
[1] = target: T1, Chryseobacterium sp-62563 deamidase Q126F (Chryseobacterium sp-62563)
T1 sequence: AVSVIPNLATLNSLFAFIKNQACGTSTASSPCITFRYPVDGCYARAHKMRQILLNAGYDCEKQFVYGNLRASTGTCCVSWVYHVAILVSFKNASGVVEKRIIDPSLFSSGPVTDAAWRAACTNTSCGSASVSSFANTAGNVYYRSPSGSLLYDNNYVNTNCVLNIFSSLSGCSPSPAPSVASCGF

[2] = target: T2, Chryseobacterium sp-62563 deamidase Q160W (Chryseobacterium sp-62563)
T2 sequence: T1 sequence with F17Q, Q51W

[3] = target: T3, Chryseobacterium sp-62563 deamidase Q130E (Chryseobacterium sp-62563)
T3 sequence: T1 sequence with F17Q, Q21E

[4] = target: T4, Chryseobacterium sp-62563 deamidase Q126Y (Chryseobacterium sp-62563)
T4 sequence: T1 sequence with F17Y

[5] = target: T5, Chryseobacterium sp-62563 deamidase Q160E (Chryseobacterium sp-62563)
T5 sequence: T1 sequence with F17Q, Q51E

[6] = target: T6, Chryseobacterium sp-62563 deamidase Y252S (Chryseobacterium sp-62563)
T6 chain: T1 sequence with F17Q, Y143S

[7] = target: T7, Chryseobacterium sp-62563 deamidase P255D (Chryseobacterium sp-62563)
T7 chain: T1 sequence with F17Q, P146D

[8] = target: T8, Chryseobacterium sp-62563 deamidase V190D (Chryseobacterium sp-62563)
T8 chain: T1 sequence with F17Q, V81D

[9] = target: T9, Chryseobacterium sp-62563 deamidase V190F (Chryseobacterium sp-62563)
T9 chain: T1 sequence with F17Q, V81F

[10] = target: T10, Chryseobacterium sp-62563 deamidase V190P (Chryseobacterium sp-62563)
T10 chain: T1 sequence with F17Q, V81P

[11] = target: T11, Chryseobacterium sp-62563 deamidase P285D (Chryseobacterium sp-62563)
T11 chain: T1 sequence with F17Q, P176D

[12] = target: T12, Chryseobacterium sp-62563 deamidase V190Y (Chryseobacterium sp-62563)
T12 chain: T1 sequence with F17Q, V81Y

Binder	Relative activity of maturated deamidase (% initial rate) [1]	Leakage activity [2]	Relative activity of maturated deamidase (% initial rate) [2]	Relative activity of maturated deamidase (% initial rate) [3]	Leakage activity [4]	Relative activity of maturated deamidase (% initial rate) [4]	Relative activity of maturated deamidase (% initial rate) [5]	NanoDSF thermal unfolding temperature [6]	NanoDSF thermal unfolding temperature [7]	NanoDSF thermal unfolding temperature [8]	NanoDSF thermal unfolding temperature [9]	NanoDSF thermal unfolding temperature [10]	NanoDSF thermal unfolding temperature [11]	NanoDSF thermal unfolding temperature [12]
B1	52	2%	> 100	44	3%	98	> 100	–	–	–	–	–	–	–
B2	–	–	–	–	–	–	–	73.4 ° C.	81.4 ° C.	75.4 ° C.	78.2 ° C.	74.9 ° C.	65.8 ° C.	81.5 ° C.

From patent US20250215412A1 (NOVOZYMES A S, published 2025)
